Several values for one entry are separate records, joined by “and”; a condition that tells them apart may be missing. Identical values can stand only once. Like-named read-outs stand apart in the source and are kept apart here.
B1: ALCAM protein, commercially available (Sino, Cat. No. 10045-H08H-100) (receptor)
chain: WYTVNSAYGDTIIIPCRLDVPQNLMFGKWKYEKPDGSPVFIAFRSSTKKSVQYDDVPEYKDRLNLSENYTLSISNARISDEKRFVCMLVTEDNVFEAPTIVKVFKQPSKPEIVSKALFLETEQLKKLGDCISEDSYPDGNITWYRNGKVLHPLEGAVVIIFKKEMDPVTQLYTMTSTLEYKTTKADIQMPFTCSVTYYGPSGQKTIHSEQAVFDIYYPTEQVTIQVLPPKNAIKEGDNITLKCLGNGNPPPEEFLFYLPGQPEGIRSSNTYTLTDVRRNATGDYKCSLIDKKSMIASTAITVHYLDLSLNPSGEVTRQIGDALPVSCTISASRNATVVWMKDNIRLRSSPSFSSLHYQDAGNYVCETALQEVEGLKKRESLTLIVEGKPQIKMTKKTDPSGLSKTIICHVEGFPKPAIQWTITGSGSVINQTEESPYINGRYYSKIIISPEENVTLTCTAENQLERTVNSLNVSAISIPEHDEADEISDENREKVNDQAK

Key:
Assay in all cases: SPR
[1] = target: his-tagged knob domain protein of HAdV-B7 fiber (Human adenovirus B7)
[2] = target: ALCAM protein, commercially available (Sino, Cat. No. 10045-H08H-100) (human) (UniProt Q13740)
[3] = target: his-tagged knob domain protein of HAdV-B7 fiber (Human adenovirus B7); remark: listed apart in the source

Molecule | Kd [1] [nM] | Kd [2] | Kd [3] [nM]
DSG-2 protein (MCE, Cat. No. HY-P77917) (from UniProt Q14126 50-609) (receptor) | 2610 |  | 
his-tagged knob domain protein of HAdV-B7 fiber (domain or fragment) | 3470 | 700 nM and 849 nM | 
B1 |  |  | 961
